# Reference: US20160369011A1 (EISAI R AND D MANAGEMENT, published 2016)
# T1: human CD73 (human, UniProt P21589 27-547, limits assumed)
# T1 construct: also called control antigen
# T1 sequence (looked up): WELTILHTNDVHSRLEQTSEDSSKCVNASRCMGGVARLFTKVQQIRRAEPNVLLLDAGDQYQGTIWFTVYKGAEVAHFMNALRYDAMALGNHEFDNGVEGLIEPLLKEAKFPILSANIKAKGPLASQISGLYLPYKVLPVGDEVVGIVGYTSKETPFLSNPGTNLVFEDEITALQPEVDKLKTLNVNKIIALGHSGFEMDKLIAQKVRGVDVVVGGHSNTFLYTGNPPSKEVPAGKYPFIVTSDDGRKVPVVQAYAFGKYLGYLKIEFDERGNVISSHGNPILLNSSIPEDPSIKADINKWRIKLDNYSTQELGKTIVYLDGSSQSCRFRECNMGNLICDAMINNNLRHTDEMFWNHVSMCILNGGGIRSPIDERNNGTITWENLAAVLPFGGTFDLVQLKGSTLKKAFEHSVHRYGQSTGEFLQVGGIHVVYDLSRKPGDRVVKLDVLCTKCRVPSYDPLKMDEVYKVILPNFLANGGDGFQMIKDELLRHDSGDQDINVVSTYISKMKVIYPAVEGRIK
# Legend:
# [1] = target: T2, human CA9 (carbonic anhydrase IX) (human, UniProt Q16790 38-414); test: BIAcore T100, mAb captured on anti-human IgG, antigen as analyte, 1:1 model; mAb purified by protein A (ProA); protein A (ProA) purified, not decapped
# Description: (§1) Antibody concentrations were adjusted to generate 30-40 RU signal when bound to the antigen. […] The sensor surface was washed by injecting HBS-P buffer for 1 min at a flow rate of 50 μL/min. To record the antigen association to the captured mAb, a series of increasing concentrations of antigen was injected for 60 sec at a flow rate of 50 μL/min. The dissociation of antigen was monitored for 30 min at the same flow rate. The sensor surface was regenerated by injecting 3 M MgCl₂ for 1 min and then 30 sec at a flow rate of 30 μL/min. Sensograms were analyzed with Biacore T100 Evaluation Software using a 1:1 Langmuir binding model.
# (§2) xi155D5 and the humanized variants were purified by standard protein A chromatography or the decapping method, and their affinity was analyzed using BIAcore (Table 13).
# [2] = target: T2, human CA9 (carbonic anhydrase IX); test: BIAcore T100, mAb captured on anti-human IgG, antigen as analyte, 1:1 model; mAb purified by protein A (ProA)
# Description: as §1, §2
# [3] = target: T2, human CA9 (carbonic anhydrase IX); test: SPR (BIAcore), biotin-CA9 captured on CAP chip, antibody 0-50 nM as analyte
# Description: To determine if chimerization, and therefore the loss of Cys80-Cys171 disulfide bond, results in structural perturbations leading to loss of antigen binding, the binding affinity of mAbs 155D5, xi155D5, 1-55-2, and xi1-55-2 by surface plasmon resonance was evaluated. Biotinylated ligand (biotin-hTEM1 for 1-55-2, biotin-CA9 for 155D5) was captured on a coated biotin CAP BIAcore chip (GE Healthcare, Piscataway, N.J.) using HBS-EP as running buffer. Final antigen capture levels were 130 RU and 280 RU, respectively, for biotin-TEM1 and biotin-CA9. Serial dilutions of antibody (120 μL of 0-50 nM) were passed over the ligand-coated chip. […] The chip surface was regenerated with 6 M GuHCl, 250 mM NaOH. Sensograms were double referenced and kinetic parameters were determined using BIAEvaluations software (ver. 4.1).
# [4] = target: T1, human CD73; test: ELISA on control antigen human CD73, B cell culture supernatant, 2nd screening
# [5] = target: T3, human MSLN (mesothelin) (human, UniProt Q13421 296-598); test: ELISA on human MSLN, B cell culture supernatant, 1st screening
# T3 construct: The construct coated on the plates is not described; also called human mesothelin
# [6] = target: T1, human CD73; test: ELISA, B cell culture supernatant, 2nd screening
# [7] = target: T3, human MSLN (mesothelin); test: ELISA on human MSLN, B cell culture supernatant, 2nd screening
# T3 sequence (Q13421 other isoform, or with tags, fused parts or gaps limits assumed, form in doubt): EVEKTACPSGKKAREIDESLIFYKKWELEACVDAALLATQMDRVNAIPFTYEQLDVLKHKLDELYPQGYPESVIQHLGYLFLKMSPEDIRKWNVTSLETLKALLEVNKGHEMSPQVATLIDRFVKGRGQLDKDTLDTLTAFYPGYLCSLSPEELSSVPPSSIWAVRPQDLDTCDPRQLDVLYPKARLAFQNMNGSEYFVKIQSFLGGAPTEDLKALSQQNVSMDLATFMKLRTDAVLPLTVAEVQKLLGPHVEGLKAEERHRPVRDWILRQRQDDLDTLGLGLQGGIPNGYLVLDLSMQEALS
kon [1],Kd [2],koff [2],Kd [3],koff [3],kon [3],"Optical Density (Anti-CD73 reactivity, 2nd screening) [4]","Optical Density (Anti-MSLN reactivity, 1st screening) [5]",binding result [6],"Optical Density (Anti-MSLN reactivity, 2nd screening) [7]",Binder
458000 M⁻¹ s⁻¹,0.324 nM,0.000149 s⁻¹,0.051 nM,2.4e-05 s⁻¹,460000 M⁻¹ s⁻¹,,,,,"xi155D5 (rabbit/human chimerized 155D5 mAb) (antibody, human IgG1, kappa, V domains shown, Human IgG1 kappa constant regions; Unpaired Cys80 of the light chain is capped by a free cysteine after plain protein A purification; also called xi155D5 mAb) VH: QSVKESGGRLVTPGTPLTLTCTVSGFSLNSYAMIWVRQAPGEGLEYIGFITTGGTTYYASWAKGRFTISRTSTTVDLKLTRPTTEDTATYFCARDRVKSYDDYGDLDAFEPWGPGTLVTISS VL: ELVMTQTPSSVSAAVGGTVTINCQASQSISSYLAWYQQKPGQPPKLLIYYASTLASGVPSRFKGSGSGTEFTLTITGVQCDDAATYYCLGVYGYSFDDGIAFGGGTELEIKR"
,,,,,,0.0918 OD,0.362 OD,no binding,0.668 OD,"237N18 (rabbit anti-MSLN mAb) (antibody, V domains shown) VH: QSLEESGGRLVAPGTPLTLTCTVSGFSLSSYHMSWVRQAPGEGLEWIGGITAMSRTYYASWAKGRFTISKTSTTVHLKITSPTTEDTATYFCAREPGFVSNIWGPGTLVTVSL VL: AVVLTQTASPVSGVVGGTVTIKCQASQNIYSNLAWYQQKPGQRPKLLMYDASTLASGVPSRFKGSGSGTQFTLTISDLECADAATYYCQSISSVDNNVFGGGTEVVVK"
,,,,,,0.0744 OD,0.249 OD,no binding,0.296 OD,"383I18 (rabbit anti-MSLN mAb) (antibody, V domains shown) VH: QSVEESGGRLVTPGTPLTLTCTVSGFSLSSYAMGWVRQAPGEGLEWIGTISTGGITYYASWAKGRFTISKTSTTVDLKITSPTTEDTATYFCARVGSSGYLFYFFNLWGQGTLVTVSS VL: VFELTQTPSPVSAAVGGTVTIRCQASQNIKSYLAWYQQKPGQPPKLLIYEASILASGVSSRFKGSGSGTEFTLTISDLECADAATYYCQSYYAASSNAFGGGTEVVVK"
,,,,,,0.141 OD,0.966 OD,no binding,1.88 OD,"178F16 (rabbit anti-MSLN mAb) (antibody, V domains shown) VH: QSLEESGGRLVTPGTPLTLTCTASGFSLSNYAMTWVRQAPGKGLEYIGIISTGGITYYMDSAKGRFTISRTSTTVDLKMTSLTTEDTATYFCGRNAGGSYIFYYFDLWGQGTLVTVSS VL: AFELTQTPSSVEAAVGGTVTIKCQASQSIYSYLAWYQQKPGQPPKLLIYSASTLASGVSSRFRGSGSGTEYILTISDLECADAATYYCQTYYDIVTSTFGGGTEVVVK"
,,,,,,0.0801 OD,1.4 OD,no binding,2.22 OD,"324O5 (rabbit anti-MSLN mAb) (antibody, V domains shown) VH: QSLEESGGRLVTPGTPLTLTCTASGFSLSNYAMTWVRQAPGKGLEYIGIISTGGITYYMDSAKGRFTISRTSTTVDLKMTSLTTEDTATYFCGRNAGGSYIFYYFDLWGQGTLVTVSS VL: AFELTQTPSSVEAAVGGTVTIKCQASQSIYSYLAWYQQKPGQPPKLLIYSASTLASGVSSRFRGSGSGTEYTLTISDLECADAATYYCQTYYDIVTSTFGGGTEVVVK"
,,,,,,0.0818 OD,0.282 OD,no binding,0.504 OD,"33O11 (rabbit anti-MSLN mAb) (antibody, V domains shown) VH: QSVEESGGRLVTPGTPLTLTCTVSGISLSSDAISWVRQAPGKGLEYIGIINGGGNTYYASWAKGRFTISKTSTTVDLKITSPTTEDTATYFCARGIQHGGGNSDYYYYGMDLWGPGTLVTVSS VL: EVLMTQTPSSVSAAVGDTVTIKCQASQSISSVLSWYQQKPGQPPKLLIYLASTLASGVPSRFSGSRSGTEFTLTISDLECDDAATYYCQTNYGTSSSNYGFAFGGGTEVVVK"
